Target: the molecule itself
Assay: SEC-MALS

B1: DCAF1 817–1507, C-terminally His6-tagged (domain or fragment)
chain: not shown
stoichiometry N: 2

From PMC3072279 (Biochemistry, 2011)
